How the values were obtained:
Assay in all cases: fluorescence anisotropy direct titration; 25 mM sodium phosphate (purification buffer pH 7.2), 225 mM NaCl, 10% v/v glycerol, 5 mM DTT, 0.2 mg/mL BSA, 22 C
Details in all cases: protein: recombinant; tags: N-terminal 6xHis-lipoyl-TEV tag, cleaved; chain copies: 4; label: 5'-Alexa488
[1] = biological target: T1, ΔNp63α (Homo sapiens, UniProt Q9H3D4-2 1-586)
T1 sequence: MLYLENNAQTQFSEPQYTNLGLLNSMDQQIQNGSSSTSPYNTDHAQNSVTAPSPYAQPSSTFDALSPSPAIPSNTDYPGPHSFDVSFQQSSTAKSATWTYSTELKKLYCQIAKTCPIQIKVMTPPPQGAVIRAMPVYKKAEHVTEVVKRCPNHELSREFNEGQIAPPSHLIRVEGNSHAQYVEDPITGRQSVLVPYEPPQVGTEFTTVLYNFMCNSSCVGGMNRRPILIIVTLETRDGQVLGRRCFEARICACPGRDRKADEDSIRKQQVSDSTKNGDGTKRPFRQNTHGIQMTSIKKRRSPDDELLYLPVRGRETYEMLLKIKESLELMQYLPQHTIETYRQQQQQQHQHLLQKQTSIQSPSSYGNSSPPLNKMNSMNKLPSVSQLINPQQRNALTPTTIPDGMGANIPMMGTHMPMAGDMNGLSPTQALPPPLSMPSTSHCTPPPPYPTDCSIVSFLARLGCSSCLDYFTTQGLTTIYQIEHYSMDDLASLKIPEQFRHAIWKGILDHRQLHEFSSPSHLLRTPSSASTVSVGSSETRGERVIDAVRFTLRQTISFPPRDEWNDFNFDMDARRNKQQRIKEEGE

[2] = biological target: Hsp53 (Homo sapiens, UniProt P04637 1-393)
[3] = biological target: T2, Dmp53 (Drosophila melanogaster, UniProt Q9N6D8 1-385)
T2 sequence: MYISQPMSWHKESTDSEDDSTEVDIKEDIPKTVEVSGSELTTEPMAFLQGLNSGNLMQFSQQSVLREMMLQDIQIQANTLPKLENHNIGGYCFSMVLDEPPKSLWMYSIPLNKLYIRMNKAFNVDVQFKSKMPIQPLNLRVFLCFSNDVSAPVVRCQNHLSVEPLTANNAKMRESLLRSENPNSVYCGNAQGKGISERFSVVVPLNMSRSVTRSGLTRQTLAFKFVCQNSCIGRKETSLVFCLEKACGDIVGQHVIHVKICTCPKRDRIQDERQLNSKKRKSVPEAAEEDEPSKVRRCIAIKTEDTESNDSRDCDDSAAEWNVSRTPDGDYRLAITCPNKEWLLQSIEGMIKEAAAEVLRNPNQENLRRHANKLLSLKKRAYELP

[4] = biological target: T3, ΔNp73β (Homo sapiens, UniProt O15350-9 1-450)
T3 sequence: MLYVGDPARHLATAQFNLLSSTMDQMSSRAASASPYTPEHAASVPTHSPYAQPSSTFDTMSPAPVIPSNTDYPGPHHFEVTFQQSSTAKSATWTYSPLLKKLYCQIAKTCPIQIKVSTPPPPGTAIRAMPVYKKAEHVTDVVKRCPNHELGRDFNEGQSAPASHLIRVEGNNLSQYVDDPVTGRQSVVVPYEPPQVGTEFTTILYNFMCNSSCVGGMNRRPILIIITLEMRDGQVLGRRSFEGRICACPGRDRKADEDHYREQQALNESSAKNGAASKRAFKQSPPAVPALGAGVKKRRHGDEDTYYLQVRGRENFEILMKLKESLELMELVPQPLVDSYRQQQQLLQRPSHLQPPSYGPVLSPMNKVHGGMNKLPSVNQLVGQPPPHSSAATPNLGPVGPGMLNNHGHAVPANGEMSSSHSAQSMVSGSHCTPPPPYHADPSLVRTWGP

[5] = biological target: T4, p73CT (Homo sapiens, UniProt O15350 104-383)
T4 sequence: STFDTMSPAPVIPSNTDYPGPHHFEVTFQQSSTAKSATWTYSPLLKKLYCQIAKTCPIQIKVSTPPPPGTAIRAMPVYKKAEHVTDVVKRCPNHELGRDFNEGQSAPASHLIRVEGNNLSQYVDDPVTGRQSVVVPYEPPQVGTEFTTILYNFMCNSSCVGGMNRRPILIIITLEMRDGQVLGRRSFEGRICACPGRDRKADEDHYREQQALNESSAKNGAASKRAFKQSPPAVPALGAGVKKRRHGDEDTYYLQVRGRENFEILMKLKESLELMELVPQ

Chain of Hsp53 (P04637 whole entry): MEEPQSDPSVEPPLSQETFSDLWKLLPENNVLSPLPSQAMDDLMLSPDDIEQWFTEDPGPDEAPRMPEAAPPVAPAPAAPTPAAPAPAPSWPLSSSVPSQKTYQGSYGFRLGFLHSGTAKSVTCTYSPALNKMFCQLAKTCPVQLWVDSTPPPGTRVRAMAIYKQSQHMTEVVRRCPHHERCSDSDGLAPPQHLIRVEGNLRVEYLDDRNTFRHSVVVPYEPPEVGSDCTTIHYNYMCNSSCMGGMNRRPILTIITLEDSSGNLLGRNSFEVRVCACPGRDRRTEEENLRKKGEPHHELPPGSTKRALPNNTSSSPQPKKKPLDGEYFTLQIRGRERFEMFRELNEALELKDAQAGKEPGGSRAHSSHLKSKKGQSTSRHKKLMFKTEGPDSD

B1: Ref_Alexa488 (dsDNA)
DNA 1: GGACATGTCCGGACATGTCC
DNA 2: GGACATGTCCGGACATGTCC
With B1 the Kd [1] was 75.9 nM, the Kd [2] was 56.2 nM and the Kd [3] was 52.5 nM. It also gave a Kd [4] of 55 nM and a Kd [5] of 240 nM.

— PMC2807882, “Conservation of DNA-binding specificity and oligomerisation properties within the p53 family”
